Experimental data: PMC12933331, “A Cryptic Pocket Allosterically Modulates Oligosaccharide Binding to DC-SIGN” (JACS Au, 2026)

Key:
[1] = target: T1, DC-SIGN extracellular domain (ECD), wildtype, Q9NNX6; test: cryo-EM structure; DC-SIGN ECD, single particles; low resolution map, three of the four CRDs visibly resolved; settings: remark: other sources report otherwise
T1 chain: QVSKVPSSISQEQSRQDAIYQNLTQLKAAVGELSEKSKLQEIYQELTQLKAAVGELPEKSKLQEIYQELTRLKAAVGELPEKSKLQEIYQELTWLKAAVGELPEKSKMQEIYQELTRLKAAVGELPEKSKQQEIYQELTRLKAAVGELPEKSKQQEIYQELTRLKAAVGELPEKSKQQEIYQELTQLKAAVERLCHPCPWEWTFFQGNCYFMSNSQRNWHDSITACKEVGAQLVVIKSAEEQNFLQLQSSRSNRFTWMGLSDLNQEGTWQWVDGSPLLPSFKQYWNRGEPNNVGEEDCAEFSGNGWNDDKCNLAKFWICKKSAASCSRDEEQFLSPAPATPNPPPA

[2] = target: T1, DC-SIGN extracellular domain (ECD), …; test: dynamic light scattering; purified ECDs; tetrameric state judged from mannan affinity chromatography, DLS and DSF together; settings: remark: other sources report otherwise

stoichiometry N [1]: 4
stoichiometry N [2]: 4
B1: DC-SIGN extracellular domain (ECD), wildtype, Q9NNX6 59-404 (receptor)
chain: T1 chain
